Reference: patent US10654917B2, “Antibody molecules and peptide delivery systems for use in alzheimer's disease and related disorders” (TECHNOPHAGE, INVESTIGAÇĀO E DESENVOLVIMENTO EM …, priority 2015, dated 2020)

How the values were obtained:
[1] = CAT-fusion assay: chloramphenicol resistance as measure of sdAb stability; type: cell-based, E. coli
Description: Clones were further selected for stability using a modified CAT-fusion assay, as previously described (see, e.g., WO 2008/136694 to Goncalves et al). Specifically, the CAT gene was amplified from pCAT (Stratagene) by PCR and inserted into pET-derived plasmid using EcoRI and SphI restriction sites to create the pE-CAT. The 5′PCR primer originally used to clone the variable domains was also designed to contain two sequential and different SfiI cloning sites, and an amber codon (TAG) just before the beginning of the CAT gene.
To clone single-domain antibody libraries fused into the CAT gene, SDVL fragments were generated by PCR from phagemid vectors selected by panning. The resulting SDVL PCR fragments were gel-purified, digested with the restriction endonuclease SfiI, and cloned independently into the appropriately SfiI-cut vector pE-CAT. The pSDVL-CAT constructs were under the control of the strong Lac promoter that also included an N-terminal His6 affinity tag and the ampicillin resistance gene. Alternatively, SDVL fragments may be cloned into readily available vectors designed to express cloned sequences as fusion proteins with CAT, e.g., the PCFN1 vector (see Maxwell, et al (1999) J Prot Sci 8:1908-1911, incorporated by reference in its entirety).
Chloramphenicol resistance assays were performed by transforming ER2783 cells (New England Biolabs, Inc) with each single domain CAT-fusion library. The transformation mixtures were inoculated into 5 mL of SOC and incubated at 37° C. for 1 hour. Next, 10 mL of SB medium with 3 μL of 100 mg/ml ampicillin was added to each library. A total of 15 mL of each culture was shaken for 1 hour at 37° C. Subsequently, 4.5 μL of 100 mg/ml ampicillin was added and cultures shaken for one hour at 37° C. Then 85 mL of SB medium with 85 μL of 100 mg/ml ampicillin was added and cultures grown overnight at 37° C. The following day, 600 μL of each culture was used to inoculate 20 mL of SB medium containing 100 μg/mL of ampicillin.
Expression of CAT-fusion single domain proteins was induced by addition of 0.5 mM IPTG when the optical density of cultures reached 0.9 (at […]). After 2 hours of incubation at 37° C., 100 μL aliquots of each library were plated on agar plates with IPTG (200 μg/mL) and various concentrations of chloramphenicol. Plates were incubated at 37° C. for 16-20 hours. The level of resistance was quantified as the highest level of chloramphenicol at which colonies appeared after the 37° C. incubation period. […] Results are shown in Table 6, below, where +++ indicates over 600 colonies detected; ++ indicates 400-600 colonies detected; + indicates 1-399 colonies detected; and − indicates no colonies detected at the corresponding chloramphenicol concentration. “sdAb2”, “sdAb6”, “sdAb20”, and “sdAb26” are sdAb candidates that bind BAP42 oligomers.

oligomeric form of BAP42 = biological target: T1, oligomeric form of BAP42 (Homo sapiens, UniProt P05067); assay: BIAcore binding profile to BAP42 oligomers
T1 construct: “beta-amyloid peptide 42”, or “beta-amyloid peptide 1-42”; oligomerised in house (1 mg/mL, stirring 16 h at 37 °C, retained on 5 kDa filter)
Description: Anti-oligomer sdAbs where characterized further regarding their relative binding profile to BAP42 oligomers by BIAcore.
Results are showing in FIGS. 16A-16D, respectively (kinetic studies) and Tables 14-16, respectively (biodistribution studies), presented below.

[2] = parameters: species or system CD1 mice; details: mouse, in vivo
Experimental: The different antibody-peptide constructs were used in biodistribution assays, and results compared with the biodistribution of the respective DEN2C peptides (pepH1, pepH2, pepH3, and pepM′, chemically synthesized). […] After expression and purification, the sdAbs and sdAb-peptide constructs were conjugated to technetium (^99Tc) and a biodistribution assay was performed, as previously described.
Tables 14-16 show the biodistribution of different anti-BAP42 sdAbs and constructs thereof with different peptides (“pepH3”).

[3] = 10^0, [chloramphenicol] 0.03 mM
[4] = 10^0, [chloramphenicol] 0.06 mM
[5] = 10^0, [chloramphenicol] 0.25 mM
[6] = 10^0, [chloramphenicol] 0.31 mM
[7] = 10^0, [chloramphenicol] 0.62 mM
[8] = 10^0, [chloramphenicol] 1.24 mM
[9] = 10^0, [chloramphenicol] 1.86 mM
[10] = 10^0, [chloramphenicol] 2.48 mM
[11] = 10^−2, [chloramphenicol] 0.03 mM
[12] = 10^−2, [chloramphenicol] 0.06 mM
[13] = 10^−2, [chloramphenicol] 0.25 mM
[14] = 10^−2, [chloramphenicol] 0.31 mM
[15] = 10^−2, [chloramphenicol] 0.62 mM
[16] = 10^−2, [chloramphenicol] 1.24 mM
[17] = 10^−2, [chloramphenicol] 1.86 mM
[18] = 10^−2, [chloramphenicol] 2.48 mM

T1 sequence (P05067 672-713 limits assumed): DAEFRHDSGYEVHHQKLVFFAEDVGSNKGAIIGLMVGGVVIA

B1: #26: anti-BAP42 sdAb, SEQ ID NO: 18 (antibody, V domains shown)
VL: ELDLTQTPSPVSAAVGGTVTISCQSSESVYSNNRLAWYQQKPGQPPKLLIYLASSLASGVPSRFKGSGSGTQFTLTIRDLECDDAATYYCLGYRSGSDGDAFGGGTELEIL
colonies detected (CAT-fusion chloramphenicol resistance) [1, 3]: +++ (+++ indicates over 600 colonies detected) | colonies detected (CAT-fusion chloramphenicol resistance) [1, 4]: +++ (+++ indicates over 600 colonies detected) | colonies detected (CAT-fusion chloramphenicol resistance) [1, 5]: +++ (+++ indicates over 600 colonies detected) | colonies detected (CAT-fusion chloramphenicol resistance) [1, 6]: +++ (+++ indicates over 600 colonies detected) | colonies detected (CAT-fusion chloramphenicol resistance) [1, 7]: +++ (+++ indicates over 600 colonies detected) | colonies detected (CAT-fusion chloramphenicol resistance) [1, 8]: +++ (+++ indicates over 600 colonies detected) | colonies detected (CAT-fusion chloramphenicol resistance) [1, 9]: +++ (+++ indicates over 600 colonies detected) | colonies detected (CAT-fusion chloramphenicol resistance) [1, 10]: ++ (++ indicates 400-600 colonies detected) | colonies detected (CAT-fusion chloramphenicol resistance) [1, 11]: +++ (+++ indicates over 600 colonies detected) | colonies detected (CAT-fusion chloramphenicol resistance) [1, 12]: +++ (+++ indicates over 600 colonies detected) | colonies detected (CAT-fusion chloramphenicol resistance) [1, 13]: +++ (+++ indicates over 600 colonies detected) | colonies detected (CAT-fusion chloramphenicol resistance) [1, 14]: +++ (+++ indicates over 600 colonies detected) | colonies detected (CAT-fusion chloramphenicol resistance) [1, 15]: +++ (+++ indicates over 600 colonies detected) | colonies detected (CAT-fusion chloramphenicol resistance) [1, 16]: +++ (+++ indicates over 600 colonies detected) | colonies detected (CAT-fusion chloramphenicol resistance) [1, 17]: − (− indicates no colonies detected) | colonies detected (CAT-fusion chloramphenicol resistance) [1, 18]: − (− indicates no colonies detected) | binding profile to the oligomeric form of BAP42 (oligomeric form of BAP42): best binding profiles

B2: #20: anti-BAP42 sdAb, SEQ ID NO: 2 (protein)
VHH: ELDLTQTPSSKSVPVGDTVTINCQASESVYSNNRLAWFQQKPGQPPKLLIYYASTLASGVPSRFKGSGSGTQFTLTISDVVCDDAATYYCAGYKSSTSDGIAFGGGTEVVVK
modifications: /note=“Description of Unknown rabbit immunoglobulin VL domain polypeptide”; /note=“#20”
colonies detected (CAT-fusion chloramphenicol resistance) [1, 3]: +++ (+++ indicates over 600 colonies detected) | colonies detected (CAT-fusion chloramphenicol resistance) [1, 4]: +++ (+++ indicates over 600 colonies detected) | colonies detected (CAT-fusion chloramphenicol resistance) [1, 5]: +++ (+++ indicates over 600 colonies detected) | colonies detected (CAT-fusion chloramphenicol resistance) [1, 6]: +++ (+++ indicates over 600 colonies detected) | colonies detected (CAT-fusion chloramphenicol resistance) [1, 7]: +++ (+++ indicates over 600 colonies detected) | colonies detected (CAT-fusion chloramphenicol resistance) [1, 8]: +++ (+++ indicates over 600 colonies detected) | colonies detected (CAT-fusion chloramphenicol resistance) [1, 9]: +++ (+++ indicates over 600 colonies detected) | colonies detected (CAT-fusion chloramphenicol resistance) [1, 10]: ++ (++ indicates 400-600 colonies detected) | colonies detected (CAT-fusion chloramphenicol resistance) [1, 11]: +++ (+++ indicates over 600 colonies detected) | colonies detected (CAT-fusion chloramphenicol resistance) [1, 12]: +++ (+++ indicates over 600 colonies detected) | colonies detected (CAT-fusion chloramphenicol resistance) [1, 13]: +++ (+++ indicates over 600 colonies detected) | colonies detected (CAT-fusion chloramphenicol resistance) [1, 14]: +++ (+++ indicates over 600 colonies detected) | colonies detected (CAT-fusion chloramphenicol resistance) [1, 15]: +++ (+++ indicates over 600 colonies detected) | colonies detected (CAT-fusion chloramphenicol resistance) [1, 16]: +++ (+++ indicates over 600 colonies detected) | colonies detected (CAT-fusion chloramphenicol resistance) [1, 17]: − (− indicates no colonies detected) | colonies detected (CAT-fusion chloramphenicol resistance) [1, 18]: − (− indicates no colonies detected) | binding profile to the oligomeric form of BAP42 (oligomeric form of BAP42): best binding profiles

B3: #2: anti-BAP42 sdAb, SEQ ID NO: 1 (antibody, V domains shown)
VL: ELVMTQTPSPVSAAVGGTVSISCQSSKSVYNNNWLSWFQQKPGQPPKLLIYSASTLASGVSSRFKGSGSGTQFTLTISDVQCDDAATYYCQGEFDCSGDCNVFGGGTELEIL
factor by which washout from the brain is slowed on linking to delivery peptide pepH3 [2]: about 2 | factor of increase of presence in the brain on linking to delivery peptide pepH3 [2]: about 3 | colonies detected (CAT-fusion chloramphenicol resistance) [1, 3]: +++ (+++ indicates over 600 colonies detected) | colonies detected (CAT-fusion chloramphenicol resistance) [1, 4]: +++ (+++ indicates over 600 colonies detected) | colonies detected (CAT-fusion chloramphenicol resistance) [1, 5]: +++ (+++ indicates over 600 colonies detected) | colonies detected (CAT-fusion chloramphenicol resistance) [1, 6]: +++ (+++ indicates over 600 colonies detected) | colonies detected (CAT-fusion chloramphenicol resistance) [1, 7]: +++ (+++ indicates over 600 colonies detected) | colonies detected (CAT-fusion chloramphenicol resistance) [1, 8]: +++ (+++ indicates over 600 colonies detected) | colonies detected (CAT-fusion chloramphenicol resistance) [1, 9]: +++ (+++ indicates over 600 colonies detected) | colonies detected (CAT-fusion chloramphenicol resistance) [1, 10]: ++ (++ indicates 400-600 colonies detected) | colonies detected (CAT-fusion chloramphenicol resistance) [1, 11]: +++ (+++ indicates over 600 colonies detected) | colonies detected (CAT-fusion chloramphenicol resistance) [1, 12]: +++ (+++ indicates over 600 colonies detected) | colonies detected (CAT-fusion chloramphenicol resistance) [1, 13]: +++ (+++ indicates over 600 colonies detected) | colonies detected (CAT-fusion chloramphenicol resistance) [1, 14]: +++ (+++ indicates over 600 colonies detected) | colonies detected (CAT-fusion chloramphenicol resistance) [1, 15]: +++ (+++ indicates over 600 colonies detected) | colonies detected (CAT-fusion chloramphenicol resistance) [1, 16]: +++ (+++ indicates over 600 colonies detected) | colonies detected (CAT-fusion chloramphenicol resistance) [1, 17]: − (− indicates no colonies detected) | colonies detected (CAT-fusion chloramphenicol resistance) [1, 18]: − (− indicates no colonies detected) | binding profile to the oligomeric form of BAP42 (oligomeric form of BAP42): best binding profiles
